The DeepSol protein solubility set

Assay: soluble on expression in E. coli; label from the status in PepcDB or PDB records

Row | Sequence | soluble on expression in E. coli
1 | MAIIGIDLGTTNSLVATWSEDGATLIPNVLGEFLTPSVVSVDETGEILVGRIAKERLITHPQLTAATFKRFIGTEKKYELGTYTFSSEELSSFVIKSLKQDAEAYLNEEVTGAVISVPAYFNDTQRKSTKRAAEIAGLTVERLISEPTAAAIAYGLYQEESETKFLVFDLGGGTFDVSILELFEGIMDVKSIAGDNYLGGEDFTRSLMTFFLESHQLDPDSLDSKTLSLIYTQAERCKLTLCNESAATMNVVIQNQTYETSINRGEFEKIVTPLLLRLRYPIERALRDASLNPNDLDAVILIGGATRMPLVKSVISKMFGRMPYANINPDETVALGAAIQVALKERNKALEEVILTDVCPYSLGTSVVQEFGDGKSESGYFFPIIERNTPIPVSKVERLYTVKDKQQFITIDVYQGENRRVVNNLKLGELKIKIPPAPAGNESVDIRYTYDINGILEVEVISTSTGEKKRTIIQQNAGNLTDAEIEKRLLELRDIKIHPRDREENRLLLAKCERLYEELLGDERKKISILLQQFESVLTTQNDKKIKEASSILKEHIESMERWANR | not soluble
2 | DRKQQERELTETNSVLSSVLDNMPVGILIEDADRTITTANKKLLDILDVSLTPSGLIGCEYAEIAETLKTQFADPDQFNETVNKIHSTRDAVFDEELLMADGRILARSYVSYSLPDGTGNIWLYRDIT | not soluble
3 | MRTAEFWIGRLGLERHPEGGWYRETYRSEGSYGFNGNSPFGSPRSYATSIFYLLEHGDRSRLHRIRSDEQWYFHAGSPLDVHCFPETGDPSLFTLGDDPNAGQVLHSWVSAGHWFGASLSEQADAPGTYALVSCVVAPGFDFRDLTFADPAALTAQFPAHAQIIEKLSLEHHHHHH | soluble
4 | MGSDKIHHHHHHMKIKVALLDKDKEYLDRLTGVFNTKYADKLEVYSFTDEKNAIESVKEYRIDVLIAEEDFNIDKSEFKRNCGLAYFTGTPGIELIKDEIAICKYQRVDVIFKQILGVYSDMAANVATISGENDKSSVVIFTSPCGGVGTSTVAAACAIAHANMGKKVFYLNIEQCGTTDVFFQAEGNATMSDVIYSLKSRKANLLLKLESCIKQSQEGVSYFSSTKVALDILEISYADIDTLIGNIQGMDNYDEIIVDLPFSLEIEKLKLLSKAWRIIVVNDGSQLSNYKFMRAYESVVLLEQNDDINIIRNMNMIYNKFSNKNSEMLSNISIKTIGGAPRYEHATVRQIIEALTKMEFFEEILQ | not soluble
5 | MLPETTTLQPLPSVTTIMNEPPARSPMEDYYLFNQFQYNQNPYVYPPQPVYYNTWQDASTHHFDPFQSYQIPSPYEQPIQSSMCTTPLQPLEDSRIIFDESLTKNENEQKSFVEQDSSYESSGNRFGSQKGKKIAKVIRDACCSHCSTTTTTLWRKNDEGNLECNACNLYYRHNKVKRPLSLCKQKPTTRKRRQAKKE | not soluble
6 | MKVLEERNAFLSDYEVLKFLTDLEKKHLWDQKSLAALKKSRSKGKQNRPYNHPELQGITRNVVNYLSINKNFINQEDEGEERESSGAKDAEKSGISKMSDESFAELMTKLNSFKLFKAEKLQIVNQLPANMVHLYSIVEECDARFDEKTIEEMLEIISAYA | soluble
7 | MGHHHHHHSHMVTQFKEKNESLQYETSSPTVQLKIPQLRVSSVSKSQPDGSGLLDVMYQVSKTSSVLEGSALQKLKNILPKQNKIECSGPVTHSSVDSYFLHGDLSPLCLNSKNGTVDGTSENTEDGLDRKDSKQPRKKRGRYRQYDHEIMEEAIAMVMSGKMSVSKAQGIYGVPHSTLEYKVKERSGTLKTPPKKKLRLPDTGLYNMTDSGTGSCKNSSKPV | soluble
8 | MGSDKIHHHHHHMHIKILKNRYPNIVVSKNPIKSSSDTISFFEEPYYFTIPKSNLSEEEAMLLHTLFPEPLPTFPKESTQFWFDLLFGNKELAMTNEKETYRITQFHIKTTTTKSMLQEWQKALLSFFSPEAELIMFSTNYGVIIEKSTGSLLGEEELIAVAGTLENDFYIQSTFFMGLFHPLNDRLRGLFAEERAIFNHNNREVVQTVASESLKVIALRMKESLITNELNDLFHQDDTWIPLIHTLFKNQGNISLTAKELFMHRNTIQYRLDKFYEQTNLSLRKMDGLLLAYLSTLQTNNSNHE | not soluble
9 | MVKMLTMDKILSKKIKVNWLGGVFWLLPNLLDLFSASKRKASVRPYQSLLELVQENFLNRYDLVHFSFNGDHDFFHFNDLQAIRSFNFTIEEEQLGAMQPDEVLLFEPVDRVTVELDQKGLSLIHSGKAFCASANYFKHWLKRVPQQDKVTLVWRKSGFELKQ | soluble
10 | MGSDKIHHHHHHETTSTQTVDEQAVFNDTQSAMLAVNGLHKLMWTGDLSSSAFYGGYDMLMIWYEVMGDDLVYTYSNAQFQKQAQWSSHRNATIGSATHFYRLLQYFISNSSMIIDNIDAAEGLESERNYIKGQAHFYRAFAYFTMVQMYGGRYKAEGDNTQLGVVIRNDNSTEPRARASVEEVYTQINEDIDLAIQLLGATEEKRTNKSHIDLHVARGLKARILLTQGKWLEAAEMAKLVVDLSGAKLQDDTYTTLNDRFSDQSNTEWLWGSNPLLQQAPNLTHFHGYMSNEIISYNGNTPRAIYNKLYDKISDTDVRKGIWFPRATDPNTLPRPIRAECNSKAYANYMANKFIVSDPTTKGGRDVPFMRLPEMMLIMAEGYARAGEPGKAAQALYPLASHRDPEYTLSTKTGENLIEEVMTQRRIELWGEGFRWFDLKRLNMDLDRGPAPRPEVFPNGLIEYWNKDAMPKVVDPEASNYNMYGDGTVTGNGNRYRPAGHRDWQWAIPDKETQLNPLCEPNP | not soluble
11 | GAMERKANYAVDAYFREALRVSEPKAPKAPRPPKQPIVQDFQFFPPRLFELLDQEIYYFRKTVGYKVPKNTELGSDATKVQREEQRKIDEAEPLTEEEIQEKENLLSQGFTAWTKRDFNQFIKANEKYGRDDIDNIAKDVEGKTPEEVIEYNAVFWERCTELQDIERIMGQIERGEGKIQRRLSIKKALDQKMSRYRAPFHQLRLQYGNNKGKNYTEIEDRFLVCMLHKLGFDKENVYEELRAAIRASPQFRFDWFIKSRTALELQRRCNTLITLIERENIELEEKERAEKKKKAPKGSVSAGS | soluble
12 | GSHNSHMKLQEVEIRNKDLEGQLSEMEQRLEKSQSEQDAFRSNLKTLLEILDGKIFELTELRDNLAKLLECS | soluble
13 | GPGSMSQLWVKRAKAEMTRHSRVLETINRVFPMPFEERRSRVGMTSYATYRWLRYFPVILVPVVVMGTLLETRDNPQEHVFTSLHLWLADHGVFRHDTVKALNPAFEDERRSIEWKANDRKWRFTGTDMPSEREIREFAAINIDHQSRRQL | soluble
14 | SLKDELANIPGIQFVDHVAIAVKQGDLEGQVAAYKMLGFTEVHREDVLGGDQVREVLLRIGDGPNLIQLLEPLNASSPVQKLIEKNGGRGGFAHVAFRVRNARESFDAMTAQGFHIIDKAPRKGSRGTTVFFVHPKSLDSAPFGFLIEIVEEPVEG | soluble
15 | MAASLWMGDLEPYMDENFISRAFATMGETVMSVKIIRNRLTGIPAGYCFVEFADLATAEKCLHKINGKPLPGATPAKRFKLNYATY | soluble
16 | MPLNTDFFKPSKNKEKFVLVFLKRGYPSHVDLLTKIAEKVKMKSIGYKIPNAEYLERVSDEELRDLYSSALVTLYPIDFEYYGYIPVESMAAGTPVIAFRYSGGPAETIVDGETGWLASDEEEFYRLTIKVYNEGYPEDTSVKSRKRAEEFSIQN | soluble
17 | MGSDKIHHHHHHMLNWLRTLLGRVRADPDTIPETLWQHTLAQYPFLAQRAAAEQSQLRTLAGQFLAGKEFSGAQGLVVTDEMAVAIAAQACLPVLHLGLDYYDDFKGIVVHPGAMLARREVMDDSGVVHRYSEVLLGEAMERGPVTLSWQDVAAAGESASQGYNVVVHEFIHKIDMRDGTANGCPPLPSRTAREAWQAVMQPAYDDFREQVAMAERFGGAPPWLDSYAATSPAEFFAVTCEAYFVNRPRFAQDFAALAGLFDEYFRRNRLSTQ | not soluble
18 | MGSDKIHHHHHHMSNEFDSDRYSTYWAEEWLDVKQYSPIGRHTRRKIMQLLARCPAPDTFADFGSGEGSLLSMVHAKYPAARLFGCDFASESVRRCRQRLPQAEIVLKDLTDPEPPFAGRVSVGVCSEVLEHIEDDARALHNLGTWAEHVIITVPGGELDESSRAVGHLRHYTKDSLRGLARRAGLEVLHLEEWGFPFSYPWYARVRNKAGYGMMVGRYSMRKKLLCHALYLLFFGNDLFSSGNKLFMLCRGSKA | not soluble
